Reference: publication PMC12681905

Tests used:
[1] = target: recombinant human LONP1 protein (human) (UniProt P36776); assay: MST; Monolith NT.115; 86 nM NHS-labelled LONP1, SOD2 from 2.85 to 22.8 uM, incubated 10 min; 80 % LED power, 80 % MST
[2] = target: recombinant human LONP1 protein (human) (UniProt P36776); assay: BLI; Octet R8, biotinylated LONP1 on streptavidin 2.0 biosensor; SOD2 at 0, 2.5, 5 and 10 uM for 90 s; steady-state fit
[3] = target: recombinant human LONP1 protein (human) (UniProt P36776); assay: SPR; Biacore T200, LONP1 covalently coupled to a CM5 chip; SOD2 from 10 to 0.3125 uM in PBS/0.01 % Tween 20, 20 ul/min; association 240 s, dissociation 420 s

Question: With “recombinant human SOD2 protein (from UniProt P04179 25-222) (enzyme)” as the substance, how does the Kd [1] read?
Answer: Its Kd is 1560 nM.

Question: What about the Kd [2] of the same substance?
Answer: The Kd was 13400 nM.

Question: What about the Kd [3] of the same substance?
Answer: Its Kd is 220 nM.
